{"source": "patent US6028055A", "about": "“Receptor selective BNP” (Genetech, Inc., priority 1997, dated 2000)", "note": "Where no end group is shown, it is not given here."}
{"molecular_target": "NPR-A IgG fusion (A-IgG) (Homo sapiens, UniProt P16066)", "sequence (P16066 with tags, fused parts or gaps limits assumed)": "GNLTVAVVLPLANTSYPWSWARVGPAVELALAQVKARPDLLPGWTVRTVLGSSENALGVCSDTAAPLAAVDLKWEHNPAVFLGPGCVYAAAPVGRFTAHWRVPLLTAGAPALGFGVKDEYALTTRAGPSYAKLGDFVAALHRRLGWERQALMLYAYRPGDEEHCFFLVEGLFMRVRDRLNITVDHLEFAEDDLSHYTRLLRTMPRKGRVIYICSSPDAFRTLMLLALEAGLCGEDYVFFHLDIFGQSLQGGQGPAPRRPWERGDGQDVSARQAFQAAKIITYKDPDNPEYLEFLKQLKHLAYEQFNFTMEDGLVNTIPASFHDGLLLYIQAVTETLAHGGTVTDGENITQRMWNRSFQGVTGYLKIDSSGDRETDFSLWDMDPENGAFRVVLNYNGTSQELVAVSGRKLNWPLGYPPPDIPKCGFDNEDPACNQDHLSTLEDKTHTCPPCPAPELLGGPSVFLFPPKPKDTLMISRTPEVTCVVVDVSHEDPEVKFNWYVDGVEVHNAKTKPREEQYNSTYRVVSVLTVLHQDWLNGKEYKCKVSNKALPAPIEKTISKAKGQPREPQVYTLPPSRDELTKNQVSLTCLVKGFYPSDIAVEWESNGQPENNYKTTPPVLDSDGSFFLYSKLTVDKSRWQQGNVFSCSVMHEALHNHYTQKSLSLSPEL", "assay": "Phage ELISA measurement of phagemid affinities for NPR-A (A-IgG)", "conditions": "ratio of mutant BNP phagemid binding affinity (EC50) to ANP phagemid binding to A-IgG; clones after 7 rounds of selection", "experimental": "ELISA measurement of phagemic affinities for NPR-A and NPR-C: Phage ELISA were determined according to the method of Cunningham, B. C. et al., (1994) EMBO J., 13:2508-2515. Microtiter plates (Nunc, Maxisorb, 96 wells) were coated with purified A-IgG (at 1 μg/ml) in 50 mM sodium bicarbonate (pH 9.6) at 4 C overnight. The plates were blocked with 5% skimmed milk and washed with PBS, 0.01% TWEEN 20. Serial dilutions of competing receptor (A-IgG or C-IgG) and a subsaturating concentration of BNP-phagemid were added to wells in 100 μl of binding buffer (2% skim milk in PBS). After 2 h the plates were washed, and the bound phagemid stained with sheep anti-M13 HRP conjugate antibody (Pharmacia #279402-01),and assayed.\nThe amino acid residues found at each randomized position after 7 rounds of selection are shown in Table I. 8 segments of 3 to 5 amino acids randomized by primer mutagenisis are indicated at the top of the figure, immediately above the numbering for 32 amino acid human BNP, the sequence of which is shown in single letter amino acid code. Cysteine residues 10 and 26 were not mutagenized since they form a disulfide bond essential for binding to NPR-A. The substitution of K3 for D (Display BNP) is analogous to the acidic substitution R3D in ANP used to facilitate secretion expression in E. coli (Cunningham et al. (1994)). Individual clones were picked and the DNA sequence was determined. The number of times a particular sequence was observed is shown on the left. The ratio of mutant BNP phagemid binding affinity to ANP phagemid binding to A-IgG is shown on the right. Mutations that occur outside of the mutagenesis window result from polymerase misincorporation mutations that render a selection advantage to the mutant BNP phagemid (Cunningham et al. (1994))."}
{"substance": "hBNP Lys14Asn, Ser19Gly, Ser20Arg, Ser21Ala (SPKMVQGSGCFGRNMERIGRASGLGCKVLRRH; ends and bridges not checked; cysteine pairing not given here) [N G R A, measured as BNP-phagemid clone (Display BNP, K3D)]", "Binding to NPR-A ratio of mutant/hANP": 4.8}
{"substance": "G R R: BNP-phagemid clone of Table I (Display BNP, K3D); substitutions seem those of hBNP Arg13Gly, Lys14Arg, Ser19Arg", "Binding to NPR-A ratio of mutant/hANP": 1.6}
{"substance": "hBNP Lys14Gln, Ser19Arg, Ser20His, Ser22Thr (SPKMVQGSGCFGRQMERIRHSTGLGCKVLRRH; displayed on phagemid) [Q R H S T, measured as BNP-phagemid clone (Display BNP, K3D)]", "Binding to NPR-A ratio of mutant/hANP": 4.0}
{"substance": "F W R: BNP-phagemid clone of Table I (Display BNP, K3D); substitutions as in hBNP Gly23Phe, Leu24Trp, Gly25Arg (SEQ ID NO:2) (SPKMVQGSGCFGRKMERISSSSFWRCKVLRRH; ends and bridges not checked; cysteine pairing not given here)", "Binding to NPR-A ratio of mutant/hANP": 0.8}
{"substance": "hBNP Lys14Asn, Ser19Arg, Ser20Thr, Ser21Lys (SPKMVQGSGCFGRNMERIRTKSGLGCKVLRRH; ends and bridges not checked; cysteine pairing not given here) [N R T K, measured as BNP-phagemid clone (Display BNP, K3D)]", "Binding to NPR-A ratio of mutant/hANP": 4.4}
{"substance": "hBNP Lys14Asn, Ser19Arg (SPKMVQGSGCFGRNMERIRSSSGLGCKVLRRH; ends and bridges not checked; cysteine pairing not given here) [N R, measured as BNP-phagemid clone (Display BNP, K3D)]", "Binding to NPR-A ratio of mutant/hANP": 3.5}
{"substance": "hBNP Lys14Asn, Ser19Ala, Ser20Arg, Ser21Glu (SPKMVQGSGCFGRNMERIARESGLGCKVLRRH; ends and bridges not checked; cysteine pairing not given here) [N A R E, measured as BNP-phagemid clone (Display BNP, K3D)]", "Binding to NPR-A ratio of mutant/hANP": 1.3}
{"substance": "hBNP Gly23Met, Leu24Phe, Gly25Arg (SPKMVQGSGCFGRKMERISSSSMFRCKVLRRH; ends and bridges not checked; cysteine pairing not given here) [M F R, measured as BNP-phagemid clone (Display BNP, K3D)]", "Binding to NPR-A ratio of mutant/hANP": 3.0}
{"substance": "hBNP Gly23Leu, Leu24Trp, Gly25Arg (SPKMVQGSGCFGRKMERISSSSLWRCKVLRRH; ends and bridges not checked; cysteine pairing not given here) [L W R, measured as BNP-phagemid clone (Display BNP, K3D)]", "Binding to NPR-A ratio of mutant/hANP": 2.0}
{"substance": "hBNP Lys14Asn, Ser19Arg, Ser20Lys, Ser21Thr (SPKMVQGSGCFGRNMERIRKTSGLGCKVLRRH; ends and bridges not checked; cysteine pairing not given here) [N N K T, measured as BNP-phagemid clone (Display BNP, K3D)]", "Binding to NPR-A ratio of mutant/hANP": 4.2}
{"substance": "hBNP Gly23Met, Leu24Trp, Gly25Arg [M W R]", "Binding to NPR-A ratio of mutant/hANP": 1.0}
{"substance": "hBNP Lys14Asn, Ser19Arg, Ser20His, Ser21Leu (SPKMVQGSGCFGRNMERIRHLSGLGCKVLRRH; ends and bridges not checked; cysteine pairing not given here) [N R H L, measured as BNP-phagemid clone (Display BNP, K3D)]", "Binding to NPR-A ratio of mutant/hANP": 1.0}
{"substance": "hBNP Lys14Thr, Ser19Arg, Ser20His, Ser21Gly, Ser22Gly (SPKMVQGSGCFGRTMERIRHGGGLGCKVLRRH; displayed on phagemid) [T R H G H, measured as BNP-phagemid clone (Display BNP, K3D)]", "Binding to NPR-A ratio of mutant/hANP": 5.0}
{"substance": "hBNP Lys14Asn, Ser19Arg, Ser20Gly (SPKMVQGSGCFGRNMERIRGSSGLGCKVLRRH; ends and bridges not checked; cysteine pairing not given here) [N R G, measured as BNP-phagemid clone (Display BNP, K3D)]", "Binding to NPR-A ratio of mutant/hANP": 3.9}
{"substance": "hBNP Lys14Asn, Ser19Gly, Ser20Gly, Ser21Leu (SPKMVQGSGCFGRNMERIGGLSGLGCKVLRRH; ends and bridges not checked; cysteine pairing not given here) [N G G L, measured as BNP-phagemid clone (Display BNP, K3D)]", "Binding to NPR-A ratio of mutant/hANP": 3.9}
{"substance": "hBNP Lys14Asn, Ser19Arg, Ser20Gly, Ser21Met (SPKMVQGSGCFGRNMERIRGMSGLGCKVLRRH; ends and bridges not checked; cysteine pairing not given here) [N R G M, measured as BNP-phagemid clone (Display BNP, K3D)]", "Binding to NPR-A ratio of mutant/hANP": 2.9}
{"substance": "hBNP Lys14Asn, Ser19Arg, Ser20Asn, Ser21Thr (SPKMVQGSGCFGRNMERIRNTSGLGCKVLRRH; ends and bridges not checked; cysteine pairing not given here) [N R N T, measured as BNP-phagemid clone (Display BNP, K3D)]", "Binding to NPR-A ratio of mutant/hANP": 8.7}
{"substance": "hBNP Lys14Asn, Ser19Gly, Ser20His, Ser21Leu (SPKMVQGSGCFGRNMERIGHLSGLGCKVLRRH; displayed on phagemid) [N G H L, measured as BNP-phagemid clone (Display BNP, K3D)]", "Binding to NPR-A ratio of mutant/hANP": 14.8}
{"substance": "hBNP Lys14Asn, Ser19Arg, Ser21Trp [N R S W]", "Binding to NPR-A ratio of mutant/hANP": 4.4}
{"substance": "hBNP Gly23Met, Leu24Tyr, Gly25Arg (SPKMVQGSGCFGRKMERISSSSMYRCKVLRRH; ends and bridges not checked; cysteine pairing not given here) [M Y R, measured as BNP-phagemid clone (Display BNP, K3D)]", "Binding to NPR-A ratio of mutant/hANP": 2.4}
{"molecular_target": "T1, NPR-C (Homo sapiens, UniProt P17342)", "T1 construct": "expressed in transfected cells", "T1 sequence (P17342 27-541)": "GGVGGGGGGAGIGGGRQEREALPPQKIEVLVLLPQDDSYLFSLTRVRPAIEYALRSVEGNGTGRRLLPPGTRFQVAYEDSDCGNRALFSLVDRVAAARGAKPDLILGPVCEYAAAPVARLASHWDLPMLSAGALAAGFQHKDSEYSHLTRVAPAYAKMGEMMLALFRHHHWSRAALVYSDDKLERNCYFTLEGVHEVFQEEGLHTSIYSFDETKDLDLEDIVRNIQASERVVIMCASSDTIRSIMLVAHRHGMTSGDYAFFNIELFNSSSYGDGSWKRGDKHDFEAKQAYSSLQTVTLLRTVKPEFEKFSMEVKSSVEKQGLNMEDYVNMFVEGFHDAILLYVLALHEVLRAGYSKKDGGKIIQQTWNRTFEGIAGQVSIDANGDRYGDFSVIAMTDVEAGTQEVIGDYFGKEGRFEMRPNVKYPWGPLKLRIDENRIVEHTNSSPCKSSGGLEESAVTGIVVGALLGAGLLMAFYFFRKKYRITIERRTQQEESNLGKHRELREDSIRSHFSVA", "assay": "Measurement of binding affinities for NPR-C, membranes from stable 293 cell lines, 125I rat ANP displacement", "design": "unit not given here", "conditions": "pure synthetic peptide vs 30 pM 125I rat ANP, 2 hours room temperature; duplicate points, three separate assays", "experimental": "Membrane Preparation Membranes from stable 293 cell lines expressing NPR-A (Lowe and Fendly (1992) J. Biol. Chem.) or NPR-C (Cunningham et al. (1994) supra) were prepared by removing the cells from tissue culture plates with 0.5MM EDTA in PBS, centrifuging at 225×g, 4° C., and resuspending in 50 mM Hepes Ph7.4, 1 mM EDTA, 1 mM DTT, 250 mM Sucrose, 0.7 μg/ml Pepstatin A, 0.5 μg/ml Leupeptin, 1 mM PMSF, 1 μM Phosphoramidon. The resuspended cells were homogenized for 30 seconds with a Brinkman polytron on setting 5. The homogenate was centrifuged in 30 ml corex tubes in Sorval HB-4 rotor at 400×(1500 rpm) for 10 minutes at 4° C. The supernatant was centrifuged again in screw cap polycarbonate tubes (Beckman 355618) at 100,000×g (31,500 rpm) for 30 minutes, 4° C. in a Beckman TI60 rotor. The pellet was resuspended in 50 mM Hepes, 0.1 mM EDTA, 5.0 mM MgCl2, 100 mM NaCl, 0.7μg/ml Pepstatin A, 0.5 μg/ml Leupeptin, 1 mM PMSF, 1 μM Phosphoramidon and homogenized again with 15 strokes in a Dounce homogenizer (Wheaton 7 ml, #357542). The membranes were passed through a 22 gauge needle several times before aliquoting into eppendorf tubes for storage at -80° C.\nThe binding was allowed to go for 2 hours at room temperature in 96 well U-bottomed microtiter polypropylene plates (Sigma M-4029) with gentle agitation. The bound hormone was separated from the free using a Packard Filtermate 196 cell harvester and 1% polyethyleneimine-saturated Packard unifilter-96 GF/B plates by vacuum filtration. The plates were dried under vacuum chamber for 10 minutes prior to adding 40 μl Microscint-20 scintillant and counting in a Packard Topcount scintillation counter. Each affinity represents points measured in duplicate within three separate assays."}
{"substance": "hBNP Arg13Gly, Lys14Arg, Ser19Arg (SPKMVQGSGCFGGRMDRIRSSSGLGCKVLRRH)", "NPR-C binding affinity (Assay #1)": "28,370 ± 9,654"}
{"substance": "hANP Gly16Arg [reference compound]", "NPR-C binding affinity (Assay #1)": "10,601 ± 1271"}
{"molecular_target": "human natriuretic peptide receptor-A expressed in 293 cells (human) (UniProt P16066)", "assay": "competition with 30 pM 125I-rat ANP on membranes of 293 cells expressing NPR-A; unit not given", "conditions": "not given"}
{"substance": "hBNP (SEQ ID NO: 1) (peptide)", "affinity (NPR-A)": 645}
{"molecular_target": "T2, NPR-C expressed in stable 293 cell lines (membranes) (human) (UniProt P17342)", "T2 sequence": "T1 sequence (P17342 27-541)", "assay": "competition with 30 pM 125I-rat ANP on membranes of 293 cells expressing NPR-C; unit not given", "conditions": "not given"}
{"substance": "hBNP (SEQ ID NO: 1) (peptide)", "affinity (NPR-C)": 1790}
